Assay: soluble on expression in E. coli; label from the status in PepcDB or PDB records

Row | Sequence | soluble on expression in E. coli
1 | MKQSKIIVAGIGPGSEQDITPAVLAAVREADVVVGYKYYFRFIRDFVRPDAECIDTGMKRERARAEQAFEYAEQGKTVCVISSGDAGIYGMTPLIYEMKRERQSNVEIIALPGISAFQKAASLLGAPIGHDFCVISLSDLMTPWERIERRILAAAQADFVTAVYNPKSDGRYWQIYRLREIFLREGRSPETPVGYVRQAGREEQEIHITTLAAFDPETVDMFTVVLIGNSQTYTFNQNIITPRGYYRETRSEATGIGQDIMIRSFRTIETELKNRDIPLDRKWALLHAIHTTADFEMERLLYTDPNAVASLYDAIRTGNLRTIVTDVTMAASGIRKGALQRLGVEVKCYLNDERVAEMATSKGITRTQAGIRLAVEEHPDALFVFGNAPTALMELCDLIRKEKAQPAGIVAAPVGFVHVEESKHMTKPFTHIPKLIVEGRKGGSNLAATLVNAILCYPDAEQLRPGRDV | soluble
2 | MILSSYNTIQSVFCCCCCCSVQKRQMRTQISLSTDEELPEKYTQHRRPWLSQLSNKKQSNTGRVQPSKRKPLPPLPPSEVAEEKIQVKALYDFLPREPCNLALRRAEEYLILEKYNPHWWKARDRLGNEGLIPSNYVTENKITNLEIYEWYHRNITRNQAEHLLRQESKEGAFIVRDSRHLGSYTISVFMGARRSTEAAIKHYQIKKNDSGQWYVAERHAFQSIPELIWYHQHNAAGLMTRLRYPVGLMGSCLPATAGFSYGKVCTHAEVK | soluble
3 | MGSDKIHHHHHHMPTRSTPTERQKRLGAELRKMRLAAGAPTEYAAGLLGIDRTRLSNMESGIRPFSPDRVRTLACNYSCTDDGYIEALVAMTSTKERGWWERHRGILPSGLLDIAELEWHATRVRTAQVMHAPGLLQTEDYARGVFTAVLPPLTRLEVELRVAHRMERQQVLERPSPLPYIAYVHEAVLRMPYGGTEATQQQLKHLCSQSERENIEVRVIPTSTGGFPGAGHALLYADGAVPQLDTVQLDSAHGPEFTHADAQLTKYRSHLNWMDGAAMTSAASRDLIRKIARDL | not soluble
4 | MKRGKGEKKATKSRDGSGQVVPLTEPVVTATGMVGTRSWIGGLFTRSNRRQDKAVDYTLSPLQEERLQRLQDRMVVPFDETRPDHQESLKALWNVAFPNVHLTGLVTEQWKEMGWQGPNPSTDFRGCGFIALENLLFSARTYPVNYSLLLKQRGDRAKWEYPFAVAGINISFMLIQMLDLQNNQDERAFDVLYCIAFAMMDAQWLAMHASYMEFNEVLQATRNQLERELSLDDIHRIQDLPAYNLLFQ | soluble
5 | MNDFHRDTWAEVDLDAIYDNVENLRRLLPDDTHIMAVVKANAYGHGDVQVARTALEAGASRLAVAFLDEALALREKGIEAPILVLGASRPADAALAAQQRIALTVFRSDWLEEASALYSGPFPIHFHLKMDTGMGRLGVKDEEETKRIVALIERHPHFVLEGLYTHFATADEVNTDYFSYQYTRFLHMLEWLPSRPPLVHCANSAASLRFPDRTFNMVRFGIAMYGLAPSPGIKPLLPYPLKEAFSLHSRLVHVKKLQPGEKVSYGATYTAQTEEWIGTIPIGYADGWLRRLQHFHVLVDGQKAPIVGRICMDQCMIRLPGPLPVGTKVTLIGRQGDEVISIDDVARHLETINYEVPCTISYRVPRIFFRHKRIMEVRNAIGRGESSA | soluble
6 | MGSDKIHHHHHHMSEQYKQPNTPEPYWRQSTPLPDFKPLQNDLLVDVVIVGGGITGITTAYLLQKRGKKVVILEADRLFNGTTGHTTAKITAQHGLIYDEFIQHFGEDKAKQYYDAQMEAKTFIKNTVQDLSIDCDFQEHDAYIYTNANRYLAKLEREMRAYEKLQINGSLIDSMPLQVPIKKAIVMKGQAQFHPIAYLMKLVQDFIDRGGLIFEHTVATDVDKGEHRTVLTRDGHKVTCDYVVESSHFPFFDRGFYFSRMYADRSYVLGLKVKEPYPGGMYLSAEDPPRSIRHASYQGEDLWLISGETHKTGQGMDTDYHYEALESFSREMFNVTDISYRWSAQDLVTLDRMPYIGPATSNDPHILVATGFRKWGMTNGTIAAHVITDLIIGQVNAYQKLFAPQRFVADPSLRKFFSYNVDVAKHLIDGKTEKGSRTPESLQKDEGDVVNVNGKRAGGYRDTDGALHLVDTTCTHMGCEVSWNHGDRTWDCPCHGSRFSYDGEVVEGPAKKPLKKIDHT | not soluble
7 | MSLTEPRQAHRLHILKVALDVPLDGVFDYLSEAPVQIGQRVVVPFGPRRQVGIVVDLADASDVAPAKLKSIIQYFDQEPVLDGEFFSLLKFCADYYQYPYGQALLSALPARLRQTEPARARQQFCYWLNSAGQAADISAIPVRQAVQRRIFAALRAHGRLNEAELAELSPGWRKGLAALRERGWIEEEQVYAGLGSTLHASSVQPELNEEQVLAVQSILQYRDTFRPWLLHGITGSGKTEVYIRLLQAVLEGNQDQALVLVPEINLTPQLEARFRTRLPQFPLVTLHSNLSESERLQNWRLAQTGAARIVIGTRLSVFTPLPGLKFMIVDEEHDTSYKQQDGMRYHARDVALVRAQRRNIPIVLGSATPALETWHNARNGRYGLLTLQQRAVSQSQLPQVNCVDVSRVQMQEGLSPQLLKALKVRLERGEQSLLFINRRGYAPVLLCNACHWIAPCMRCSSRLVVHLRQGFLRCHHCGHEQNIVRQCPSCGNADLHPTGNGTQRLEETLTRLLPEARVLRVDRDSTRRKHALSEMLSAVHVGEVDILVGTQMLAKGHDFPNLTLVGVLDTDSALFSPDFRAAERLFAQLMQVAGRAGRADKPGEVLIQTSFPEHQLFNALRVQDFAAYAASLLQEREVAQFPPCEFLALIKAEANEYGPVQRFLQFAADSARALGTDALVYDPVRPQMERLKGMERGQLLFQAATRQTLQIVLRQLTPQLRAHPLSNKIRWAVDVDPQEEGHHHHHH | not soluble
8 | GMTKKTGFFKRLKALTLPQKQLFATALCQRMLPNYQLFSEVCEFGDPAVLSTALELLWQSLYDPKLKFNIDVHLQRLEDNTPEPADFEAYGVYPAMDAVVAISTLLGAIQGKIEEDIVNISKLSSSTVANYIEAISDVDLVDEALDDFVFAHEVMEEEKELQNSLLEIIEENPKITAELVKGLRKDIIETGVSNIGISVA | soluble
9 | MSLGEDEEKAFIVGTVQAIFFENPSNFYKVVLVNVTDTNTDYLEKEIVVTGSFGQVQEEEPYRFFGHFVDHPRYGRQFQVDSYQQERPTSASGVVNYLSSDKFPGIGKRTAEKIVEVLGESAIDRIIDDPSVLEEVTVLNEKKRQVIVETIRLNHGMEQVIVGLNRYGFGSQLAFSIYQTYQEETLSVIQENPYQLVEDIEGVGFKRADNIAEQIGIQADSAVRIRAAILHEVFEHSIRSGNTYVQADVLLEEAIRTLEASRPVEISPDQVANEIITLVEHGKIQQEETKLFENSLYFSEWGIGTSIQRLLSRKKEIHYEEEEVQKNIRMIEKRLNIQYGDSQQAAIEEAIKSPLFILTGGPGTGKTTVINGIVSLFAELNGLSLDLKDYTQEMFPILLAAPTGRAAKRMNETTGLPASTIHRLLGLTGREKNPSLTAKELEGGLLIVDEMSMVDTWLANTLLKAIPTNMQVIFVGDKDQLPSVGPGQVLHDLLQINEIPKCELNEIYRQGDGSSIIPLAHEIKEGKLPADFQKNQKDRSFFASDIGHIEEYIRQIVTKAKAKGFTPQDIQVLAPMYRGAAGIDALNKMMQEIFNPNDGKKKEVKWNDTVYRIGDKVLQLVNTPELNVFNGDMGEIVGITLAKDSEDKVDELVLQFDNNEVTYKRNEWNKITLSYCCSIHKAQGSEFRMVLLPMVHQYSRMLQRNLLYTAVTRSKELLILLGEVSAFETCVKNESASRMTMLKERIVNAEQEGHHHHHH | soluble
10 | MFKGIVQGAGIIKKISKNDDTQRHGITFPKDILESVEKGTVMLVNGCSLTVVRISGDVVYFDIDQAINTTTFRELEVGNKVNLEVRPEFGSLLGKGALTGNIKGVATVDNITEEEDRLKVYIKIPKDLIENILSEDHIGINGVSHSIEEISDDIIFINYPKNLSITTNLGTLEKGSDVNVETLNVSNEWD | soluble
11 | MCMVHTYLGETINFHITYKKKKSVRLFVDSYGNVEVQAPKGTPVEYLIQLLEEKWDWIQTTRKEMAERARGPQEKDYDQGEGFLYLGNTYPIQISQDANITQDNAVFEKDRLHIYVKELKDEKIQQALKRFYYKQKSLVEKSIKAHQSNFKTKPRSIRITDSSRTWGTCDSNLQLTFNWKLAMAPQRVIDYVVVHEMCHMVHLNHDRSFWRLVGKIMPDYKEMENWLALSSWKMTVMAGDPLEHHHHHH | soluble
12 | MSLSEVDIAKADPAAASHPLLLNGDATVAQKNPGSVAENNLCSQYEEKVRPCIDLIDSLRALGVEQDLALPAIAVIGDQSSGKSSVLEALSGVALPRGSGIVTRCPLVLKLKKLVNEDKWRGKVSYQDYEIEISDASEVEKEINKAQNAIAGEGMGISHELITLEISSRDVPDLTLIDLPGITRVAVGNQPADIGYKIKTLIKKYIQRQETISLVVVPSNVDIATTEALSMAQEVDPEGDRTIGILTKPDLVDKGTEDKVVDVVRNLVFHLKKGYMIVKCRGQQEIQDQLSLSEALQREKIFFENHPYFRDLLEEGKATVPCLAEKLTSELITHICKSLPLLENQIKETHQRITEELQKYGEGHHHHHH | not soluble
13 | MKVDVDEKTYIITMANDITKLYEENKRNLHYSITDPLTGAYNRKYLNDRFDIFIGDYIVLIDLDNFKMINDYEGHNVGDKILCDFVSLLNKELINSTSIIRLGGDEFIVIFSSDVDKNYVYSQLEALRENFLKVFSKYKYLSFSYGVDTVKRNLKLTIVELDKKMYKNKEKNKKKFDKNLEHHHHHH | soluble
14 | MEEKFDVVIIGAGPAGLFAAYELVEKSNLKVLIIEEGGDVDQRVCPMYELGYCIGCKPCHIMSGVGGAGGLSDGTVNLRPDIGGDLTELTNDENYSWQLVWEVDQILLRHEAPRNLYKGDPEQIKYWERKAAQAGVKFIPIIQRHIGSDNTPKVIKSIKNYLEKKGVKFLLWTKALEFNKGWVKVRRGKDTFTINARYIIVAPGRGGADWFHEVAKKIGLKARHGPIDVGVRVEVPAIVMEPITSINHDPKFHIYTDTYDDFVRTFCTNPYGFVVEERYDNYVGVNGHSMREKKSNNTNFALLTRIELTEPVEDTTAYGKSIAQLATTIGGGKPIIQRLGDLRRGRRSTWSRIRKSDVEPTLKHVTPGDIAMALPHRVVTNIIEGLERLDKVIPGVASDHTLLYAPEIKYYAMRVEVNELLETNIENVFAAGDGAGLSRDIVNAAATGIMAARGILVKEGLYNLKDFKKPGNWKEKIENLEPEYLEHHHHHH | not soluble
15 | MNHSIPTLRTERLTLRPLAMADFPAYRDFMASPRSTGVGGPYDLPSTWGVFCHDLANWHFFGHGALMIDLGETGECIGQIGINHGPLFPEKELGWLLYEGHEGRGYAAEAAVALRDWAFETLNLPTLVSYVSPQNRKSAAVAERIGGTLDPLAPRSDPEDLVYRYHQVKTA | soluble
16 | MKIYCCLNTVGFFMDGCGVIPPDSKEITAEHWQSLLKSQAEGGVIDFSVFPPSIKEVIRTHDDEVADANFQKQMLISDATDFINSRQWQGKAALGRLKEDELKQYNLWLDYLEALELVDTSSAPDIEWPTPPAVQARLEHHHHHH | soluble
17 | LSSVSSIPDYAEQLRTADLRVTRPRVAVLEAVNAHPHADTETIFGAVRFALPDVSRQAVYDVLHALTAAGLVRKIQPSGSVARYESRVGDNHHHIVCRSCGVIADVDCAVGEAPCLTASDHNGFLLDEAEVIYWGLCPDCSISDTSRSHP | soluble
18 | MVLEGIHSHDPQARDIAIQYYHAAETTIYDYIARRHPQSAQCVTDFMSTVMSGLSAKAREGHSIEQLCATAALAGEAIKTLLKE | not soluble
19 | MAHHHHHHMIGELVLLIGDFHSPMRNLGLPDCFKDLLKTDKIKHVLCTGNVGCRENLELLKNIADSVHITKGDMDDEYDFPEDTSLTIGDFKISLIHGHQIIPWGDTNALLQWQKKYDSDIVISGHTHKNSIVRYEGKYFINPGSATGAFQPWLSQPTPSFILMAVAKSSIVVYVYEEKNGKTNVEMSEL | soluble
